Test results from US20100291160A1, “PHARMACEUTICAL SYSTEM FOR TRANS-MEMBRANE DELIVERY” (priority 2009, published 2010).
Where a name gives a salt, the structure may show the parent alone.

B1: Neupogen: a filgrastim (e.g., G-CSF, Neupogen) (protein, UniProt P09919 31-207, looked up)
Granulocyte …: TPLGPASSLPQSFLLKCLEQVRKIQGDGAALQEKLVSECATYKLCHPEELVLLGHSLGIPWAPLSSCPSQALQLAGCLSQLHSGLFLYQGLLQALEGISPELGPTLDTLQLDVADFATTIWQQMEELGMAPALQPTQGAMPAFASAFQRRAGGVLVASHLQSFLEVSYRVLRHLAQP
modifications: filgrastim

Columns and labels:
[1] = in vitro diffusion of formulation across membrane mounted on vial; assay type: in vitro ADME, pig or sheep; conditions: for Optimal pH Conditions with Experimental Formulation: pH found to produce rapid diffusion across the membrane, pH adjusted with sodium bicarbonate or citric acid
From the text: A flat section of either pig or sheep intestinal membrane is mounted across the open top of the vial. A screw top having a 7 mm hole (approximate) is then screwed to the vial, thereby securing the membrane to the vial. The vial is inverted and immersed in an isotonic solution (e.g., saline). Diffusion of the formulation is then allowed to proceed. The isotonic solution may be agitated with a magnetic stirrer. A pipette is used to sampling the saline solution at designated time intervals (e.g., 5, 10, 30, 60, 90, 180, and 600 seconds).
Other membranes may be used, including commonly available natural casing for food preparation, or cell culture human membranes (e.g. membranes from MatTek Corporation; Ashland, Mass.). […] Samples may contain vitamin B12 and arginine. The pH of the formulation may be adjusted as necessary.
The following compounds were analyzed in in vitro tests and the pH of the solutions were adjusted to the values noted below with either sodium bicarbonate (solid) or citric acid to produce the desired testing pH solutions.

[2] = in vivo sublingual administration to rats, active agent in plasma by HPLC; set-up: species or system Sprague Dawley rats; conditions: sublingual experimental formulation in rats; ng/mL in serum relative to ng/mL in serum from published studies (conventional control dose)
Experimental: Formulations comprising a variety of active agents were also tested in vivo. A […] volume/400 g animal formulation was administered sublingually to rats (Sprague Dawley rats, with jugular catheters were purchased from Charles River Laboratories). All rats were in the 275-300 g weight range.
All dose formulations were prepared on the day of dosing. Prior to dose administration, each rat was anesthetized with ketamine:xylazine (7:1, 60 mg/kg, IM) and positioned (supine) so that the head and shoulders were in alignment to preclude drainage of the dose into the trachea or esophagus. The mouth was opened and the interior (including under the tongue) was swabbed with dry cotton applicators. The tongue was held up and the dose was dispensed (same technician for all applications) into the sublingual pocket. The tongue was allowed to return to a normal position and the mouth was allowed to close.
Blood samples were drawn via catheter or cardiac puncture either 10 minutes following administration, or over a time range including 30 seconds, 1 minute, 5 minutes and 15 minutes following administration. The concentration (ng/mL) of the active agent in rat plasma was calculated using high powered liquid chromatography (HPLC). Efficiency was calculated as (ng/mL administered active agent in serum)/(ng/mL active agent in serum from published studies).

Row | Molecule | Optimal pH Conditions with Experimental Formulation [1] | Observed Plasma Levels [2] [%] | other results
1 | Enoxaparin Sodium | pH 8.0 to 6.0 | – | –
2 | Adalimumab | pH 7.7 | – | –
3 | CCCC[C@H](NC(C)=O)C(=O)N[C@H]1CC(=O)NCCCC[C@@H](C(=O)O)NC(=O)[C@H](Cc2c[nH]c3ccccc23)NC(=O)[C@H](CCCN=C(N)N)NC(=O)[C@@H](Cc2ccccc2)NC(=O)[C@H](Cc2cnc[nH]2)NC1=O [Bremelanotide] | pH 6.0 to 8.0 | 136.00 | –
4 | Etanercept | pH 8 | – | rate of absorption ([1]; at lower pH values (than approximately 8.0)): dramatically reduced by at least a factor of five times; transport of the drug after elimination of each of the cofactors of the formulation ([1]; in most tests): slight to substantial decreases; pH at which transport occurred ([1]; in vitro membrane test of Example 3): 8 pH; rates of membrane transport ([1]; pH adjusted to approximately 8.0): substantially increased
5 | CNC[C@H](O)c1ccc(O)c(O)c1 [Epinephrine] | pH 5.0 to 7.0 | 0 to 600 | –
6 | CCCc1nn(C)c2c(=O)[nH]c(-c3cc(S(=O)(=O)N4CCN(C)CC4)ccc3OCC)nc12 [Sildenafil] | pH 6.8 | – | –
7 | CCCc1nn(C)c2c(=O)[nH]c(-c3cc(S(=O)(=O)N4CCN(C)CC4)ccc3OCC)nc12 [sildenafil citrate] | – | 169.00 | –
8 | CC[C@H](C)[C@H](NC(=O)[C@H](CCC(=O)O)NC(=O)[C@H](CO)NC(=O)[C@@H](NC(=O)[C@@H](N)CO)C(C)C)C(=O)N[C@@H](CCC(N)=O)C(=O)N[C@@H](CC(C)C)C(=O)N[C@@H](CCSC)C(=O)N[C@@H](Cc1cnc[nH]1)C(=O)N[C@@H](CC(N)=O)C(=O)N[C@@H](CC(C)C)C(=O)NCC(=O)N[C@@H](CCCCN)C(=O)N[C@@H](Cc1cnc[nH]1)C(=O)N[C@@H](CC(C)C)C(=O)N[C@@H](CC(N)=O)C(=O)N[C@@H](CO)C(=O)N[C@@H](CCSC)C(=O)N[C@@H](CCC(=O)O)C(=O)N[C@@H](CCCN=C(N)N)C(=O)N[C@H](C(=O)N[C@@H](CCC(=O)O)C(=O)N[C@@H](Cc1c[nH]c2ccccc12)C(=O)N[C@@H](CC(C)C)C(=O)N[C@@H](CCCN=C(N)N)C(=O)N[C@@H](CCCCN)C(=O)N[C@@H](CCCCN)C(=O)N[C@@H](CC(C)C)C(=O)N[C@@H](CCC(N)=O)C(=O)N[C@@H](CC(=O)O)C(=O)N[C@H](C(=O)N[C@@H](Cc1cnc[nH]1)C(=O)N[C@@H](CC(N)=O)C(=O)N[C@@H](Cc1ccccc1)C(=O)O)C(C)C)C(C)C [Teriparatide (rDNA Origin), Teriparatide] | pH 6.8 | – | –
9 | B1 | pH 7.4 | – | –
